From the RNAGym collection of RNA variant scans (doi:10.1073/pnas.2313332121)
This sample holds only a part of the variants without activity.

B1: TPR 5TU (parent)
chain: GGAUCUUCUCGAUCUAACAAAAAAGACAAAUCUGCCACAAAGCUUGAGAGCAUCUUCGGAUGCAGAGGCGGCAGCCUUCGGUGGCGCGAUAGCGCCAACGUUCUCAACUAUGACACGCAAAACGCGUGCUCCGUUGAAUGGAGUUUAUCAUG

Variants of: B1
Experiment: polymerase ribozyme fitness, log enrichment relative to wild type (log ratio); higher = more active; in vitro selection for triplet polymerase activity
Procedure, shortened: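 For each subunit of a heterodimeric triplet polymerase ribozyme, a mutant library was built by PCR and transcribed, then taken through a single in vitro selection round in triplicate. Selection involved annealing to a biotinylated primer, the partner subunit and triplets, incubation frozen at −7 °C, gel excision of extended constructs, capture on streptavidin beads and RT-PCR. Genotypes were retained after Illumina sequencing of inputs and outputs only with ≥10 input reads and ≥1 read in each output. Fitness is defined as the logarithm of a genotype's enrichment relative to wild-type enrichment, using inverse-variance-weighted averages across replicates, with the logarithm taken to base 2.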

Variant	polymerase ribozyme fitness (log ratio)
A21U A30G C57U A91U U104A G126A	≤ -4.2
A21G A39U G83A U90G G92C C108G	≤ -4.2
A21C G50A C96U C125G	-1.98
A21G U77G G88C U135G G143U A147C	≤ -4.2
A21U G86A	-0.555
A22C A28G C36A U55A C87A C118G	≤ -4.2
A21U A24U U44A U53G U78G A97U A137C G141C	≤ -4.2
A22C C27A U56A C85U C93A C99G A138U	≤ -4.2
A22C A26U U33G G34A U55A A73U U77G G86A G143A	≤ -4.2
A21U A26U C57U G84U	-3.6
A21G A73G C85A C103U A122U	-1.86
A21U C36A A64C G86C	≤ -4.2
A22C A49C G84C G94U	≤ -4.2
A21G C87U G140U	-3.6
A21U U45G U55A A91U C125U C131G	≤ -4.2
A21G C38U A60G C85U	1
A21U C38U C95U A106U U144C	-2.96
A22C A23G C54U	≤ -4.2
A21C G50A C57A C93A U135G	≤ -4.2
A22C A26C A49C U56A G59U G68U C85U G86U G94U A97G U134A	≤ -4.2
A21U C54A C96U	-2.01

Variant	polymerase ribozyme fitness (log ratio)
A21G A24G C51U U104G A113U	≤ -4.2
A21G U33G A52C A64C C75G C93G U151G	≤ -4.2
A21C G50A U102A	-1.21
A22C A24G A26U A52G G80A C85G G94U C123U	≤ -4.2
A21U C43A U78G G84U C93U C103G A115G	≤ -4.2
A21U C93U U144C	-0.648
A21U U33G A122U U144G	-3.94
A21C G34C A39U U55A C95G U104A A119G U144G U146A	≤ -4.2
A22C C76A A89G C95G	-4.19
A21G A37U	-0.976
A22C C51U G84U	-2.78
A21C U53A C85A	-2.67
A22C C57A A106G G141C	-0.358
A21C U55A C96U	-0.915
A21U A52G C87U C114U U144G	-3.22
A22C A39C U55A U102G C129U	≤ -4.2
A21C G34U U61A C87U U134G U135A G141C	≤ -4.2
A21U U104C	0.212
A21U C57A A142U	-0.38
A21U U78G	≤ -4.2
A21G A60G G68U C93G C95G U139C	≤ -4.2

Variant	polymerase ribozyme fitness (log ratio)
A21U U78C G86C U148A	≤ -4.2
A21G G48A C54U G92A	≤ -4.2
A22C C27U U44A A47C U82C C95U A142C	≤ -4.2
A21C G25C U53A	-3.09
A21U A60U C103G C108U A142G U148C	≤ -4.2
A21U G62C A66C G83U A91U G152A	≤ -4.2
A21U U33G A49C G50C C54A U82G G92U	≤ -4.2
A21G C27U A52C C93G A110U G152U	≤ -4.2
A21C G84A C118A	-0.563
A21C G34A C43U A60C A64G A91U	≤ -4.2
A21C U45G C54G G143C	≤ -4.2
A21U A26C A39G A40C G50A G68C C72G U111C	≤ -4.2
A21C U148A	-3.11
A21U U61G G80A U101A	-2.86
A21C U44A C75A C96A	-3.98
A21G A39U C75U U82A C87A A98G C118U C125U	≤ -4.2
A21G A49C G81A G141A	≤ -4.2
A21U C96U A113U	-2.6
A21C G83C C87A G92U C116G	-1.27
A21G U139A	-3.9
A21C G25A U127G	≤ -4.2

Variant	polymerase ribozyme fitness (log ratio)
A21G A98U C129A U144A	-3.61
A21C U55A	-0.0725
A21G C27U A40U C69U C95G A98G C99U A115U A142U	≤ -4.2
A21U U31C A73G G94U A113U	-3.49
A22C A24G A52G G68U	≤ -4.2
A21U A22G G88A A97G A106C C125U	≤ -4.2
A21G U44A G68U G83U A106G A115U C118A A119C C123U U144G	≤ -4.2
A21U A28C U53A G88C	≤ -4.2
A21U A26G U33A A142C G143U U146G C149G	≤ -4.2
A21U A40U C85U G141A	0.05
A21C U33G C87U U145A A150U	≤ -4.2
A21C G59A	-0.0146
A22C A23G G62A A91G A98U C114A U146A	≤ -4.2
A21G G94A	-1.01
A21C U134A	-1.79
A21U A41U U55G G83A U145A	-2.5
A21G A24U C93G	-4.02
A21U A26C	-1.48
A21U A24C U33C G94A A107C	≤ -4.2
A21G C76G A97U	≤ -4.2
A21C G58C U61G U146G	-3.25
